According to PMC509409, “Recognition and Accommodation at the Androgen Receptor Coactivator Binding Interface” (PLoS Biology, 2004):

How the values were obtained:
Assay in all cases: SPR; Biacore 2000; biotinylated peptides (about 250 RU) held on streptavidin cells, AR LBD injected at 10 μM, 5 μM, 1 μM and 300 nM, 10 μl/min; HBS-P (10 mM HEPES pH 7.4, 150 mM NaCl, 0.005% Surfactant P20); SMRT2 peptide cell subtracted as background; two-state conformational change model, Kd calculated from rate constants
Details in all cases: both partners purified
[1] = molecular target: T1, biotinylated LxxLL peptide (biotin tag attached through the additional C-terminal SGSGK)
T1 construct: also in PDB 1T7F; The SGSGK-biotin form is told for the FRET assay; source: synthetic peptide (Anaspec)

[2] = molecular target: T2, biotinylated FxxLF peptide (biotin tag attached through the additional C-terminal SGSGK)
T2 construct: also in PDB 1T7R; The SGSGK-biotin form is told for the FRET assay; source: synthetic peptide (Anaspec)

[3] = molecular target: T3, biotinylated FxxLW peptide (biotin tag attached through the additional C-terminal SGSGK)
T3 construct: also in PDB 1T79; The SGSGK-biotin form is told for the FRET assay; source: synthetic peptide (Anaspec)

- Kd [1]: 1.8 µM
- Kd [2]: 1.1 µM
- Kd [3]: 0.92 µM
B1: androgen receptor ligand-binding domain (AR LBD), DHT-bound (domain or fragment)
chain: GSPGISGGGGGSHIEGYECQPIFLNVLEAIEPGVVCAGHDNNQPDSFAALLSSLNELGERQLVHVVKWAKALPGFRNLHVDDQMAVIQYSWMGLMVFAMGWRSFTNVNSRMLYFAPDLVFNEYRMHKSRMYSQCVRMRHLSQEFGWLQITPQEFLCMKALLLFSIIPVDGLKNQKFFDELRMNYIKELDRIIACKRKNPTSCSRRFYQLTKLLDSVQPIARELHQFTFDLLIKSHMVSVDFPEMMAEIISVQVPKILSGKVKPIYFHTQ
